# Changes are numbered by the printed parent chain.
# B1: VEGFBII23B04 (VHH)
# VHH: EVQLVESGGGLVQTGDSLRLSCEVSGRTFSSYSMGWFRQAQGKEREFVVAISKGGYKYDSVSLEGRFTISKDNAKNTVYLQINSLKPEDTAVYYCASSRAYGSSRLRLADTYEYWGQGTQVTVSS
# notes: also called VEGFBII23B4; VEGFBII23B04 (wt)
# B2: VEGFBII038 (VHH)
# VHH: B1 VHH with E1D, T14P, D16G, E23A, V24A, Q41P, S60A, K71R, K86R, Q120L
# notes: also called VEGFBII0038; VEGFBII00038
# Experiments:
# human VEGF-B = target: T1, human VEGF-B (human, UniProt P49765-2 22-188, limits assumed); experiment: solid phase binding ELISA
# T1 construct: also called hVEGF-B
# T1 sequence (looked up): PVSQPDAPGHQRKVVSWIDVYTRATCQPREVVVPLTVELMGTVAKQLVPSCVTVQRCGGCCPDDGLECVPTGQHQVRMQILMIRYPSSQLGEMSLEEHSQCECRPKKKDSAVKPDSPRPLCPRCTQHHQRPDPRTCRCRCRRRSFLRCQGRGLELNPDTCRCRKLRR
# Protocol: (§1) Binding to VEGFB, VEGFC, VEGFD and PIGF is assessed via a solid phase binding ELISA. In brief, VEGFB, VEGFC, VEGFD and PIGF (R&D Systems, Minneapolis, Minn., USA) are coated overnight at 4° C. at 1 μg/mL in a 96-well MaxiSorp plate (Nunc, Wiesbaden, Germany). Wells are blocked with a casein solution (1% in PBS). […] As positive controls serial dilutions of the appropriate receptors are taken along and detected with horseradish peroxidase (HRP)-conjugated goat anti-human IgG, Fc specific antibody (Jackson Immuno Research Laboratories Inc., West Grove, Pa., USA) and a subsequent enzymatic reaction in the presence of the substrate TMB (3,3′,5,5′-tetramentylbenzidine) (Pierce, Rockford, Ill., USA).
# human VEGF-C = target: T2, human VEGF-C (human, UniProt P49767 103-227); experiment: solid phase binding ELISA
# T2 construct: also called hVEGF-C
# T2 sequence (looked up): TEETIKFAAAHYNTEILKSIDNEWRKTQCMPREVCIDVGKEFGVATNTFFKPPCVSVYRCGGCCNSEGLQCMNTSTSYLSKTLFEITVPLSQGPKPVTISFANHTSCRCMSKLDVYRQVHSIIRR
# Protocol: as §1
# human PIGF = target: T3, human PIGF (human, UniProt P49763-2 21-149, limits assumed); experiment: solid phase binding ELISA
# T3 construct: also called hPIGF; PLGF
# T3 sequence (looked up): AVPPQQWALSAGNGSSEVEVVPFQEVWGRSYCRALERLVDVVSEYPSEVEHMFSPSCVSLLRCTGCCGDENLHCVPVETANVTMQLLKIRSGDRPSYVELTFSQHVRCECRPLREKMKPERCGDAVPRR
# Protocol: as §1
# human VEGF-D = target: T4, human VEGF-D (human, UniProt O43915 93-201); experiment: solid phase binding ELISA
# T4 construct: also called hVEGF-D
# T4 sequence (looked up): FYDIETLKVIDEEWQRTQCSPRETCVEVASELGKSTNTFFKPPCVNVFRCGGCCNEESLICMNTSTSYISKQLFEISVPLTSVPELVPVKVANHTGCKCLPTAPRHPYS
# Protocol: as §1
# [1] = target: T5, recombinant human VEGF165 (human, UniProt P15692-4 27-191); experiment: Biacore, periplasmic extract on hVEGF165 chip, two phase decay fit
# T5 construct: also called hVEGF165; rhVEGF165
# Target sequence in this assay (P15692 other isoform, or with tags, fused parts or gaps limits assumed): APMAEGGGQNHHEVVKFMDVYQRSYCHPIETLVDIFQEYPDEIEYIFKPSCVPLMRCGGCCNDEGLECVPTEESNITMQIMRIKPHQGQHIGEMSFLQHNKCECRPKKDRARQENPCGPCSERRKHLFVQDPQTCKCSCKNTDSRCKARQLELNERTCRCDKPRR
# [2] = target: T5, recombinant human VEGF165; experiment: binding ELISA, coated rhVEGF165
# VEGF = experiment: cell-based or functional assay
# [3] = target: T5, recombinant human VEGF165; experiment: Biacore, periplasmic extract on hVEGF165 chip
# Target sequence in this assay (P15692 other isoform, or with tags, fused parts or gaps limits assumed): as above
# [4] = target: T5, recombinant human VEGF165; experiment: competition AlphaScreen, blocking of hVEGF165 binding to hVEGFR2-Fc
# Target sequence in this assay (P15692 other isoform, or with tags, fused parts or gaps limits assumed): as above
# [5] = target: T5, recombinant human VEGF165; experiment: competition AlphaScreen, blocking of hVEGF165 binding to hVEGFR1-Fc
# Target sequence in this assay (P15692 other isoform, or with tags, fused parts or gaps limits assumed): as above
# [6] = target: T5, recombinant human VEGF165; experiment: AlphaScreen competition, 0.05 nM hVEGF165 and 0.05 nM hVEGFR2-Fc; blocked: hVEGFR2-Fc
# Target sequence in this assay (P15692 other isoform, or with tags, fused parts or gaps limits assumed): as above
# [7] = target: T5, recombinant human VEGF165; experiment: as above; remark: listed apart in the source
# Target sequence in this assay (P15692 other isoform, or with tags, fused parts or gaps limits assumed): as above
# [8] = target: T5, recombinant human VEGF165; experiment: competition AlphaScreen, blocking of hVEGF165 binding to hVEGFR2-Fc; remark: listed apart in the source
# [9] = target: T5, recombinant human VEGF165; experiment: AlphaScreen competition, 0.05 nM hVEGF165 and 0.05 nM hVEGFR2-Fc; blocked: hVEGFR2-Fc; remark: listed apart in the source
# [10] = target: T5, recombinant human VEGF165; experiment: AlphaScreen competition, 0.05 nM hVEGF165 and 0.05 nM hVEGFR1-Fc; blocked: hVEGFR1-Fc
# [11] = target: T5, recombinant human VEGF165; experiment: competition AlphaScreen, blocking of hVEGF165 binding to hVEGFR1-Fc; remark: listed apart in the source
# [12] = target: T5, recombinant human VEGF165; experiment: AlphaScreen competition, 0.05 nM hVEGF165 and 0.05 nM hVEGFR1-Fc; blocked: hVEGFR1-Fc; remark: listed apart in the source
# [13] = target: T5, recombinant human VEGF165; experiment: AlphaScreen competition, 0.05 nM hVEGF165 and 0.05 nM hVEGFR2-Fc; blocked: hVEGFR2-Fc; remark: listed apart in the source
Binder,binding result (human VEGF-B),binding result (human VEGF-C),binding result (human PIGF),binding result (human VEGF-D),% fast [1],EC50 [2],"% inhibition, VEGF HUVEC proliferation assay (VEGF)","IC50 (nM), VEGF HUVEC proliferation assay (VEGF)",Binding level (RU) [3],IC50 (read off the curve) [4],IC50 (read off the curve) [5],IC50 (read off the curve) [6],IC50 (read off the curve) [7],IC50 (read off the curve) [8],IC50 (read off the curve) [9],IC50 (read off the curve) [10],IC50 (read off the curve) [11],IC50 (read off the curve) [12],IC50 (read off the curve) [13]
B1,no binding (tested: 500 nM-32 pM),no binding (tested: 500 nM-32 pM),no binding (tested: 500 nM-32 pM),no binding (tested: 500 nM-32 pM),12%,0.297 nM,91%,0.36 nM,768 RU,,,,,,,,,,
B2,,,,,,,,,,~0.4 nM,~0.4 nM,~0.4 nM,~0.5 nM,~0.4 nM,~0.2 nM,~0.8 nM,~0.4 nM,~0.8 nM,~0.4 nM

# Reference: patent US20170247475A1 (Boehringer Ingelheim, published 2017)
